In PMC5809731:

Legend:
[1] = molecular target: Flag-tagged human cyclophilin A (human) (UniProt P62937); assay: dual-focus fluorescence correlation spectroscopy (2fFCS)
[2] = molecular target: B30.2 domain of human TRIM5α (human) (UniProt Q9C035); assay: dual-focus fluorescence correlation spectroscopy (2fFCS); 2 nM Alexa 488-labelled B30.2 or CypA titrated with unlabelled capsid surrogate; 7°C; hydrodynamic radius against concentration, viscosity corrected with CypA as reference; Kd per monomeric capsid equivalent
[3] = molecular target: B30.2 domain of rhesus TRIM5α (rhesus macaque) (UniProt Q0PF16); assay: as above
[4] = molecular target: Flag-tagged human cyclophilin A (human) (UniProt P62937); assay: as above

Flag-tagged human cyclophilin A (human), sequence (P62937 whole entry): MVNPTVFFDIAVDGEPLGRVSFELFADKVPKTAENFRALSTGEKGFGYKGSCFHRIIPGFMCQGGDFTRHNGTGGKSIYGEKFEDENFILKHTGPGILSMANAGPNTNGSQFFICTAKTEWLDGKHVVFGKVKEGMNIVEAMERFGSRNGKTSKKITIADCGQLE
B30.2 domain of rhesus TRIM5α (rhesus macaque), sequence (Q0PF16 other isoform, or with tags, fused parts or gaps): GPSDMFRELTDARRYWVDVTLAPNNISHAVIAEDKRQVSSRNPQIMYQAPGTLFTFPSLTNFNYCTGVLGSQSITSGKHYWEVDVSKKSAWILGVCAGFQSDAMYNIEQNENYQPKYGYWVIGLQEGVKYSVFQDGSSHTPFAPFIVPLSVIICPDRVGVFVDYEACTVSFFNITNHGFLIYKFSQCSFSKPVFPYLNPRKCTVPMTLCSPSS
B30.2 domain of human TRIM5α (human), sequence (Q9C035 286-493): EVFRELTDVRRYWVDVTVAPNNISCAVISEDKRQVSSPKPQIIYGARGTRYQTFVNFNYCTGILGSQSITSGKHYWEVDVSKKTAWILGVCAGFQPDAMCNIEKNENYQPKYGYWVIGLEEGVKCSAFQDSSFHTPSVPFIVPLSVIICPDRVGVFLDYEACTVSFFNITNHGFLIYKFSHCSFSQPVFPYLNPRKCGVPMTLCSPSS

## wild-type, full-length HIV-1 capsid protein (from UniProt P12493 133-363) (natural protein; other documents disagree on this pair)
[1]
  Kd: 26.5 µM

## disulfide-linked A14C E45C W184A M185A HIV-1 capsid hexamer (complex)
[2]
  Kd: 540 µM
[3]
  Kd: 600 µM
[4]
  Kd: 28.9 µM

## TMEA-cross-linked R82C E180D V181A HIV-1 capsid trimer (complex)
[2]
  Kd: 840 µM
[3]
  Kd: 440 µM
[4]
  Kd: 17.8 µM
